molecular target: Recombinant Human CTLA4-Fc chimera (R&D systems) (human) (UniProt P16410); test: ELISA, signal over SA

Row | ELISA S/N(SA) | Binder
1 | 45.4 | GGCLHPFLPIRSVHFCPR (peptide, not shown: large carriers; small tags and cut ends) [C4m#19-5th4w-NN6-67]
2 | 22.9 | GGCWHPFLPIFSVHFCGC (peptide, not shown: large carriers; small tags and cut ends) [C4m#19-5th4w-NN6-85]
3 | 27.7 | GGCMHPYLPIVSVHFCPC (peptide, not shown: large carriers; small tags and cut ends) [C4m#19-5th4w-NN6-57]
4 | 27.1 | GGCWHPFLPIQSLHFCGV (peptide, not shown: large carriers; small tags and cut ends) [C4m#19-5th4w-NN6-56]
5 | 17.4 | GGCPHPWLPIASVHFCPF (peptide, not shown: large carriers; small tags and cut ends) [C4m#19-5th4w-NN6-71]
6 | 21.2 | GGCRHPWLPIVSYHFCSS (peptide, not shown: large carriers; small tags and cut ends) [C4m#19-5th4w-NN6-90]
7 | 24.9 | GGCWHPVLPIRSCHFCAV (peptide, not shown: large carriers; small tags and cut ends) [C4m#19-5th4w-NN6-79]
8 | 28.9 | GGCCHPWLPIVSTHFCGL (peptide, not shown: large carriers; small tags and cut ends) [C4m#19-5th4w-NN6-93]
9 | 16.5 | GGCWHPYLPILSRHFCQA (peptide, not shown: large carriers; small tags and cut ends) [C4m#19-5th4w-NN6-63]
10 | 32.3 | GGCFHPYLPIRSWHFCSR (peptide, not shown: large carriers; small tags and cut ends) [C4m#19-5th4w-NN6-81]
11 | 17.2 | GGCQHPYLPIWSFHFCPF (peptide, not shown: large carriers; small tags and cut ends) [C4m#19-5th4w-NN6-62]
12 | 35.5 | GGCMHPFLPIRSMHFCPL (peptide, not shown: large carriers; small tags and cut ends) [C4m#19-5th4w-NN6-70]
13 | 30 | GGCVHPFLPIRSVHFCAL (peptide, not shown: large carriers; small tags and cut ends) [C4m#19-5th4w-NN6-92-1]
14 | 24.9 | GGCLHPWLPIVSVHFCAR (peptide, not shown: large carriers; small tags and cut ends) [C4m#19-5th4w-NN6-69-3]
15 | 29.5 | GGCWHPFLPISSPHFCGR (peptide, not shown: large carriers; small tags and cut ends) [C4m#19-5th4w-NN6-65-1]
16 | 18.7 | GGCRHPFLPISSIHFCCI (peptide, not shown: large carriers; small tags and cut ends) [C4m#19-5th4w-NN6-58]
17 | 30.5 | GGCRHPFLPIVSTHFCSR (peptide, not shown: large carriers; small tags and cut ends) [C4m#19-5th4w-NN6-77]
18 | 27.6 | GGCLHPHLPIWSLHFCPL (peptide, not shown: large carriers; small tags and cut ends) [C4m#19-5th4w-NN6-59]
19 | 28.3 | GGCFHPFLPIRSLHFCCR (peptide, not shown: large carriers; small tags and cut ends) [C4m#19-5th4w-NN6-82]
20 | 21.4 | GGCLHPVLPIRSFHFCWR (peptide, not shown: large carriers; small tags and cut ends) [C4m#19-5th4w-NN6-87]
21 | 24.9 | GGCSHPFLPILSVHFCPF (peptide, not shown: large carriers; small tags and cut ends) [C4m#19-5th4w-NN6-69-1]
22 | 27.9 | GGCWHPALPIRSWHFCPR (peptide, not shown: large carriers; small tags and cut ends) [C4m#19-5th4w-NN6-78]
23 | 24.7 | GGCLHPWLPIRSRHFCSR (peptide, not shown: large carriers; small tags and cut ends) [C4m#19-5th4w-NN6-68]
24 | 22.9 | GGCRHPYLPIASPHFCPG (peptide, not shown: large carriers; small tags and cut ends) [C4n#19-5th2w-NNS6-71]
25 | 19.7 | GGCAHPVLPIRSLHFCPH (peptide, not shown: large carriers; small tags and cut ends) [C4m#19-5th4w-NN6-86]

Continued, binder first:

Row | Binder | ELISA S/N(SA)
26 | GGCRHPWLPIVSWHFCSR (peptide, not shown: large carriers; small tags and cut ends) [C4m3127-4th-NNS6-87] | 21.4
27 | GGCWHPYLPIFSVHFCPR (peptide, not shown: large carriers; small tags and cut ends) [C4m3127-4th-NNS6-16] | 16.5
28 | GGCRHPFLPIFSKHFCEL (peptide, not shown: large carriers; small tags and cut ends) [C4m3127-4th-NNS6-83] | 20.7
29 | GGCRHPVLPIVSLHFCPG (peptide, not shown: large carriers; small tags and cut ends) [C4m3127-4th-NNS6-17] | 20.4
30 | GGCRHPFLPIVSFHFCPF (peptide, not shown: large carriers; small tags and cut ends) [C4m#19-5th2w-NNS6-90] | 19.7
31 | GGCAHPFLPIFSPHFCPF (peptide, not shown: large carriers; small tags and cut ends) [C4m#19-5th2w-NNS6-3] | 18.4
32 | GGCFHPYLPISSVHFCGR (peptide, not shown: large carriers; small tags and cut ends) [C4m#19-5th2w-NNS6-94] | 22.4
33 | GGCRHPHLPIWSWHFCGR (peptide, not shown: large carriers; small tags and cut ends) [C4m#19-5th4w-NN6-23] | 30.2
34 | GGCKHPVLPIWSWHFCRI (peptide, not shown: large carriers; small tags and cut ends) [C4m#19-5th4w-NN6-50] | 28.1
35 | GGCWHPYLPIRSVHFCGR (peptide, not shown: large carriers; small tags and cut ends) [C4m#19-5th2w-NNS6-12] | 20.4
36 | GGCWHPFLPIMSFHFCPY (peptide, not shown: large carriers; small tags and cut ends) [C4m#19-5th4w-NN6-30] | 16.7
37 | GGCMHPFLPIQSVHFCSR (peptide, not shown: large carriers; small tags and cut ends) [C4m#19-5th2w-NNS6-22] | 29.3
38 | GGCLHPVLPIRSRHFCPV (peptide, not shown: large carriers; small tags and cut ends) [C4m#19-5th4w-NN6-25] | 38.9
39 | GGCMHPYLPIKSVHFCPL (peptide, not shown: large carriers; small tags and cut ends) [C4m#19-5th2w-NNS6-55] | 28.3
40 | GGCPHPWLPIFSRHFCPV (peptide, not shown: large carriers; small tags and cut ends) [C4m#19-5th4w-NN6-47] | 34.2
41 | GGCVHPSLPILSVHFCPR (peptide, not shown: large carriers; small tags and cut ends) [C4m#19-5th4w-NN6-55-4] | 29.5
42 | GGCWHPHLPIVSSHFCLF (peptide, not shown: large carriers; small tags and cut ends) [C4m#19-5th4w-NN6-2] | 18.4
43 | GGCRHPYLPIWSIHFCQK (peptide, not shown: large carriers; small tags and cut ends) [C4m#19-5th4w-NN6-19] | 29.7
44 | GGCFHPFLPIRSDHFCSR (peptide, not shown: large carriers; small tags and cut ends) [C4m#19-5th4w-NN6-34] | 32.2
45 | GGCPHPFLPIWSVHFCPF (peptide, not shown: large carriers; small tags and cut ends) [C4m#19-5th4w-NN6-32] | 27.2
46 | GGCWHPFLPIRSSHFCPS (peptide, not shown: large carriers; small tags and cut ends) [C4m#19-5th2w-NNS6-21] | 31.1
47 | GGCWHPYLPIVSWHFCSR (peptide, not shown: large carriers; small tags and cut ends) [C4m#19-5th4w-NN6-51] | 22.1
48 | GGCVHPYLPISSIHFCSM (peptide, not shown: large carriers; small tags and cut ends) [C4m3127-4th-NNS6-72] | 20

Row | Binder | ELISA S/N(SA)
49 | GGCRHPYLPIVSRHFCPF (peptide, not shown: large carriers; small tags and cut ends) [C4m#19-5th4w-NN6-4] | 31.6
50 | GGCKHPVLPIVSLHFCPW (peptide, not shown: large carriers; small tags and cut ends) [C4m3127-4th-NNS6-90] | 22.9
51 | GGCRHPFLPIWSHHFCVC (peptide, not shown: large carriers; small tags and cut ends) [C4m#19-5th4w-NN6-11] | 22.1
52 | GGCWHPWLPIYSHHFCPI (peptide, not shown: large carriers; small tags and cut ends) [C4m#19-5th4w-NN6-24] | 27.6
53 | GGCWHPFLPIRSLHFCPR (peptide, not shown: large carriers; small tags and cut ends) [C4m#19-5th4w-NN6-39] | 35.6
54 | GGCWHPFLPIRSVHFCCR (peptide, not shown: large carriers; small tags and cut ends) [C4m#19-5th4w-NN6-14] | 16.1
55 | GGCRHPFLPIWSWHFCPF (peptide, not shown: large carriers; small tags and cut ends) [C4m#19-5th4w-NN6-7] | 23
56 | GGCSHPFLPIFSLHFCPV (peptide, not shown: large carriers; small tags and cut ends) [C4m#19-5th4w-NN6-38] | 16.6
57 | GGCSHPQLPILSDHFCSA (peptide, not shown: large carriers; small tags and cut ends) [C4m#19-5th4w-NN6-20] | 30.6
58 | GGCWHPWLPILSPHFCPR (peptide, not shown: large carriers; small tags and cut ends) [C4m#19-5th4w-NN6-21] | 37.5
59 | GGCWHPFLPIRSYHFCPW (peptide, not shown: large carriers; small tags and cut ends) [C4m#19-5th2w-NNS6-14] | 34.7
60 | GGCRHPFLPIFSLHFCAR (peptide, not shown: large carriers; small tags and cut ends) [C4m#19-5th2w-NNS6-8] | 16.5
61 | GGCRHPFLPIYSVHFCAC (peptide, not shown: large carriers; small tags and cut ends) [C4m#19-5th4w-NN6-53] | 32.2
62 | GGCLHPFLPIFSSHFCAL (peptide, not shown: large carriers; small tags and cut ends) [C4m3127-4th-NNS6-28] | 23.2
63 | GGCLHPGLPIRSLHFCPR (peptide, not shown: large carriers; small tags and cut ends) [C4m#19-5th4w-NN6-54] | 33.3
64 | GGCLHPFLPISSWHFCGR (peptide, not shown: large carriers; small tags and cut ends) [C4m#19-5th4w-NN6-37] | 22.7
65 | GGCLHPFLPIRSVHFCGC (peptide, not shown: large carriers; small tags and cut ends) [C4m#19-5th4w-NN6-52] | 28.6
66 | GGCRHPFLPIVSWHFCGR (peptide, not shown: large carriers; small tags and cut ends) [C4m#19-5th4w-NN6-44] | 30.1
67 | GGCLHPFLPIRSVHFCPF (peptide, not shown: large carriers; small tags and cut ends) [C4m#19-5th4w-NN6-15] | 39.9
68 | GGCQHPWLPISSWHFCPR (peptide, not shown: large carriers; small tags and cut ends) [C4m#19-5th2w-NNS6-67] | 25.5
69 | GGCFHPYLPIRSWHFCGR (peptide, not shown: large carriers; small tags and cut ends) [C4m#19-5th4w-NN6-9] | 28.8
70 | GGCKHPFLPISSHHFCPY (peptide, not shown: large carriers; small tags and cut ends) [C4m#19-5th2w-NNS6-25] | 21.1
